# Results as given in IntAct's records for PubMed 25910212.
# B1: EF-hand domain-containing protein 1 (Homo sapiens), Q5JVL4 (parent)
# chain: MVSNPVHGLPFLPGTSFKDSTKTAFHRSQTLSYRNGYAIVRRPTVGIGGDRLQFNQLSQAELDELASKAPVLTYGQPKQAPPADFIPAHVAFDKKVLKFDAYFQEDVPMSTEEQYRIRQVNIYYYLEDDSMSVIEPVVENSGILQGKLIKRQRLAKNDRGDHYHWKDLNRGINITIYGKTFRVVDCDQFTQVFLESQGIELNPPEKMALDPYTELRKQPLRKYVTPSDFDQLKQFLTFDKQVLRFYAIWDDTDSMYGECRTYIIHYYLMDDTVEIREVHERNDGRDPFPLLMNRQRVPKVLVENAKNFPQCVLEISDQEVLEWYTAKDFIVGKSLTILGRTFFIYDCDPFTRRYYKEKFGITDLPRIDVSKREPPPVKQELPPYNGFGLVEDSAQNCFALIPKAPKKDVIKMLVNDNKVLRYLAVLESPIPEDKDRRFVFSYFLATDMISIFEPPVRNSGIIGGKYLGRTKVVKPYSTVDNPVYYGPSDFFIGAVIEVFGHRFIILDTDEYVLKYMESNAAQYSPEALASIQNHVRKREAPAPEAESKQTEKDPGVQELEALIDTIQKQLKDHSCKDNIREAFQIYDKEASGYVDRDMFFKICESLNVPVDDSLVKELIRMCSHGEGKINYYNFVRAFSN
# partner: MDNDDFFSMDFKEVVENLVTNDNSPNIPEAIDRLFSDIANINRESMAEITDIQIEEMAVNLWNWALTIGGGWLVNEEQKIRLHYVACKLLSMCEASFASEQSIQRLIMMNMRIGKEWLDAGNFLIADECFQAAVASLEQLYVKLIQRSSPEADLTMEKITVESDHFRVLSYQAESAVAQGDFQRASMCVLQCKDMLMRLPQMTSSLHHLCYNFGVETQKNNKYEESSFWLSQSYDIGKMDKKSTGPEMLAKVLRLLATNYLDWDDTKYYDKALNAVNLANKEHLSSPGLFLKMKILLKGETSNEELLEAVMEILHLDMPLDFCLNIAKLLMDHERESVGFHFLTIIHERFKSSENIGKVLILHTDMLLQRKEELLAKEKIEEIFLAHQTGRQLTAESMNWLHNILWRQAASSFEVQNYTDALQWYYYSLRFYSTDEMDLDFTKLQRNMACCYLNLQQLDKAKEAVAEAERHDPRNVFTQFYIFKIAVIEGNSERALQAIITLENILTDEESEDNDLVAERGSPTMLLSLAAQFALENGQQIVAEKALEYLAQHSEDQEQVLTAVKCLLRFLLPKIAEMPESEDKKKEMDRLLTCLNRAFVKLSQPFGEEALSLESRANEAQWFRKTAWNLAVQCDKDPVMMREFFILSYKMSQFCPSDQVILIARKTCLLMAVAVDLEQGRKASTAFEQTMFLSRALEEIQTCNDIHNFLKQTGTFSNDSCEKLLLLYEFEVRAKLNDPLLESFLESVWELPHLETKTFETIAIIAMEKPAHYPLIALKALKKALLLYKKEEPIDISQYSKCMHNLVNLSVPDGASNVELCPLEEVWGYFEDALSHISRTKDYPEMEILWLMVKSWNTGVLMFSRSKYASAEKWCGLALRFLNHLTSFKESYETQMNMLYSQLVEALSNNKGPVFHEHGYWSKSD
# B2: THAP domain-containing protein 1 (Homo sapiens), Q9NVV9 (parent)
# chain: MVQSCSAYGCKNRYDKDKPVSFHKFPLTRPSLCKEWEAAVRRKNFKPTKYSSICSEHFTPDCFKRECNNKLLKENAVPTIFLCTEPHDKKEDLLEPQEQLPPPPLPPPVSQVDAAIGLLMPPLQTPVNLSVFCDHNYTVEDTMHQRKRIHQLEQQVEKLRKKLKTAQQRCRRQERQLEKLKEVVHFQKEKDDVSERGYVILPNDYFEIVEVPA
# B3: Mothers against decapentaplegic homolog 3 (Homo sapiens), P84022 (parent)
# chain: MSSILPFTPPIVKRLLGWKKGEQNGQEEKWCEKAVKSLVKKLKKTGQLDELEKAITTQNVNTKCITIPRSLDGRLQVSHRKGLPHVIYCRLWRWPDLHSHHELRAMELCEFAFNMKKDEVCVNPYHYQRVETPVLPPVLVPRHTEIPAEFPPLDDYSHSIPENTNFPAGIEPQSNIPETPPPGYLSEDGETSDHQMNHSMDAGSPNLSPNPMSPAHNNLDLQPVTYCEPAFWCSISYYELNQRVGETFHASQPSMTVDGFTDPSNSERFCLGLLSNVNRNAAVELTRRHIGRGVRLYYIGGEVFAECLSDSAIFVQSPNCNQRYGWHPATVCKIPPGCNLKIFNNQEFAALLAQSVNQGFEAVYQLTRMCTIRMSFVKGWGAEYRRQTVTSTPCWIELHLNGPLQWLDKVLTQMGSPSIRCSSVS
# partner: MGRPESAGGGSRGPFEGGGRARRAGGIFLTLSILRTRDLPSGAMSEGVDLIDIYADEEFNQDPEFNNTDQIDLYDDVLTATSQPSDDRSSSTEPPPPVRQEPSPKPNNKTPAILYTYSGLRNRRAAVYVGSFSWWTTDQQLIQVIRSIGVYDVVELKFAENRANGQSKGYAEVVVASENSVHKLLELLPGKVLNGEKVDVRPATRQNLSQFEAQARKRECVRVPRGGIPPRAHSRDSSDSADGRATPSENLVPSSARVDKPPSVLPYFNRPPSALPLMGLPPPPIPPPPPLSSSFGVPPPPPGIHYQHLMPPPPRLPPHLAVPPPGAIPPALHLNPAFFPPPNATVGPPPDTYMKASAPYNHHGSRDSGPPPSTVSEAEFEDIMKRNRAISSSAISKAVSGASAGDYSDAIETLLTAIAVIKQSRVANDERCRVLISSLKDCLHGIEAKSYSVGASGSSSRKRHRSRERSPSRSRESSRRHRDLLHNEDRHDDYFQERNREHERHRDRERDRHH
# B4: ATP synthase mitochondrial F1 complex assembly factor 2 (Homo sapiens), Q8N5M1 (parent)
# chain: MWRSCLRLRDGGRRLLNRPAGGPSASMSPGPTIPSPARAYAPPTERKRFYQNVSITQGEGGFEINLDHRKLKTPQAKLFTVPSEALAIAVATEWDSQQDTIKYYTMHLTTLCNTSLDNPTQRNKDQLIRAAVKFLDTDTICYRVEEPETLVELQRNEWDPIIEWAEKRYGVEISSSTSIMGPSIPAKTREVLVSHLASYNTWALQGIEFVAAQLKSMVLTLGLIDLRLTVEQAVLLSRLEEEYQIQKWGNIEWAHDYELQELRARTAAGTLFIHLCSESTTVKHKLLKE
# partner: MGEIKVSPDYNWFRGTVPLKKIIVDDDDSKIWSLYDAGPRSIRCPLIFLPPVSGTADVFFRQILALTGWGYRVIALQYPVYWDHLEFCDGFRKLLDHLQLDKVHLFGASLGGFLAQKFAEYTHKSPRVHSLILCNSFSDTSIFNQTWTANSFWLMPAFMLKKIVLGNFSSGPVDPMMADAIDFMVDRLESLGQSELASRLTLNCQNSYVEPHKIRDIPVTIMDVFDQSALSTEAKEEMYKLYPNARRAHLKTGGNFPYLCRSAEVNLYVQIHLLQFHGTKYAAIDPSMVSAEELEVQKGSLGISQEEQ
# B5: ATP synthase mitochondrial F1 complex assembly factor 2 (Homo sapiens), Q8N5M1 (parent)
# chain: B4 chain
# partner: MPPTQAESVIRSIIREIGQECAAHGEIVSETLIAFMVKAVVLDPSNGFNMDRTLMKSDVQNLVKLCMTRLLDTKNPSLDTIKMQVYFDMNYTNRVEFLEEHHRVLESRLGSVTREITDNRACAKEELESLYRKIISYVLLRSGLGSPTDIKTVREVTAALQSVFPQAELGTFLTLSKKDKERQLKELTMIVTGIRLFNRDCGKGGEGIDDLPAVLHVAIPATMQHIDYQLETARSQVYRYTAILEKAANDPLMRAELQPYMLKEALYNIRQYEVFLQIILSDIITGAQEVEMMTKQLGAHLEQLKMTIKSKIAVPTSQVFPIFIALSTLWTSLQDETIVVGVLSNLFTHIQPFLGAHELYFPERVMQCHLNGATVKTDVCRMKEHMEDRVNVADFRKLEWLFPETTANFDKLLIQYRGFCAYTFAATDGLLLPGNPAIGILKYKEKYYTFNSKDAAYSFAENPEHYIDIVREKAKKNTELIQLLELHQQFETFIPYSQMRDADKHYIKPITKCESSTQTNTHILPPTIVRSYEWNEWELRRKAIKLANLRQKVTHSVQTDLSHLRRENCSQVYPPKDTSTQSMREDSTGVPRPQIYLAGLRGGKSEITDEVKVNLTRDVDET
# Variants of: B1
# Conditions: with TEX11, Q8IYF3-3
row,Variant,effect of a mutation on the interaction
1,M448T,with no effect
2,P77T,with no effect
3,A394S,disrupting interaction strength
4,R159W,with no effect
5,R221H,disrupting interaction strength

# Variants of: B2
# Conditions: with RALYL
row,Variant,effect of a mutation on the interaction
1,F81L,with no effect

# Variants of: B2
# Conditions: with nup62_human NUP62, P37198
# nup62_human NUP62, P37198, sequence (P37198 whole entry): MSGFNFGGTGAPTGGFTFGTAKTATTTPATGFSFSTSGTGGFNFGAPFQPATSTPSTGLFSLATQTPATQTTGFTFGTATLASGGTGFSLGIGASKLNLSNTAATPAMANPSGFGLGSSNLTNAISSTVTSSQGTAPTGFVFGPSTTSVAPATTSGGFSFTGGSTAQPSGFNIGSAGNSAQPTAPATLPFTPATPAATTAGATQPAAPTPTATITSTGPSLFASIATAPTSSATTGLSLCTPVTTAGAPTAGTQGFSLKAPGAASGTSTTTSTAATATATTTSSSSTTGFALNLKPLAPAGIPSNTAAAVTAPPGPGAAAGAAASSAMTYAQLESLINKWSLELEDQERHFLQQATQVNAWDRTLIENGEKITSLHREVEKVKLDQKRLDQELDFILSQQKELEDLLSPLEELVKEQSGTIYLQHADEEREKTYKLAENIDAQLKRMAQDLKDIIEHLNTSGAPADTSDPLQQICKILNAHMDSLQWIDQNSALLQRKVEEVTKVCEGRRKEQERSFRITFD
row,Variant,effect of a mutation on the interaction
1,F81L,with no effect

# Variants of: B3
# Conditions: with CPSF7, Q8N684-3
row,Variant,effect of a mutation on the interaction
1,N197I,with no effect
2,I170V,with no effect

# Variants of: B4
# Conditions: with spg21_human SPG21, Q9NZD8
row,Variant,effect of a mutation on the interaction
1,W94R,disrupting interaction strength

# Variants of: B5
# Conditions: with cf206_human CFAP206, Q8IYR0
row,Variant,effect of a mutation on the interaction
1,W94R,disrupting interaction strength
